What all share (details): remark: other sources report otherwise
Test [1] addresses EBOV GPddmuc (Ebola virus (EBOV)), Q05320.
The target of test [2] is SUDV GPddmuc (Sudan virus (SUDV)), Q66814.
Test [3] deals with MARV GPddmuc (Marburg virus (MARV)), P35253.

One may read the EC50 as the concentration needed to bring the measured effect to its halfway point. Low readings indicate greater potency, high ones weaker potency.

B1: murine monoclonal antibody 16G8 (antibody, V domains shown)
VH: EVQLQESGPGLVKPGASVKISCKASGYSFTGYYMNWVKQSPEKSLEWIGEINPSTGGTTYNQKFKAKATLTVDKSSSTAYMQLKSLTSEDSAVYYCVRYSHYYGSGSWYFDVWGTGTTVTVSS
VL: DIQMTQSPASLSASVGETVTITCRASENIYSNLAWYQQKQGKSPQLLVNAATNLADGVPSRFSGSGSGTQFSLKINSLQPEDFGSYYCQHFYVTPYMFGSGTKLEIKR
Take B1: the EC50 turned out to be 1.23 µg/mL in test [1] and 0.22 µg/mL in test [2].

B2: murine monoclonal antibody 21B2 (antibody, V domains shown)
VH: EVQLQESGAELVRPGASVTLSCKTSGYTFTDYEMHWVKQTPVHGLEWIGAIDPETGGTAYNQKFKGKATLTADKSSSTAYMELSRLTSEDSAVYYCTGNYATDYWGQGTSVTVSS
VL: DIVMSQSPSSLAVSAGEKVTMSCKSSQSLFNSRSRKNYLAWYQLKPGQSPKLLIYWASTRESGVPDRFTGSGSGTDFTLTISSVQAEDLAVYYCKQSNYLWTFGGGTKLEIKR
As for B2, the EC50 is 0.0307 µg/mL in test [3] and more than 10 µg/mL in test [1].

B3: murine monoclonal antibody 2D8 (antibody, V domains shown)
VH: EVQLQESGGELVRPGTSVKISCKASGYTFTNFWLGWIKERPGHGLEWIGDIYPGGHYTNYNENFKGKATLTADTSSNTAYMQVSSLTSEDSAVYFCFTQYYDMDYWGQGTSVTVSS
VL: not shown
With B3, the 50% effective concentration (EC50) in test [3] was 0.0573 µg/mL; in test [1], 26.2 µg/mL; in test [2] it was more than 10 µg/mL.

B4: murine monoclonal antibody 17C6 (antibody, V domains shown)
VH: EVQLQESGPGLVQPSQSLSITCTVSGFSLTSYGVHWVRQSPGKGLEWLGVIWSGGSTDYNAAFISRLSISKDNSKSQVFFKMNSLQADDTAIYYCARNWFDYDNYYSMDYWGQGTSVTVSS
VL: DIQMTQTTSSLSASLGDRVTISCRASQDISNYLNWYQQKPDGTVKLLIYYTSRLHSGVPSRFSGSGSGTDFSLTISNQEPEDIATYYCQQYSNLPWTFGGGTKLEIKR
With B4, the EC50 in test [1] and in test [2] was 0.03 µg/mL in each case.

B5: murine monoclonal antibody 8C4 (antibody, V domains shown)
VH: EVQLQESGPELKKPGETVKISCKASGYTFTTYGMSWVKQAPGKGLKWMGRINTYSGVPTYADEFKGRFAFSLENSASTAYLQINNLKNEDTATYFCARGDGGHWFANWGQGTLVTVSA
VL: DIQMTQSPSSLSASLGGKVTITCKASQDINKNIAWYQHKPGKGPRLLIWYKSALQPGIPSRFSGSGSGRDYSFSISNLEPEDIATYSCLQYDNLPPTFGGGTKLEIKR
With B5, the results for the EC50 in test [1] and in test [2] were 0.21 µg/mL and 0.06 µg/mL, respectively.
